Experimental data as given in patent publication EP4613859A1, “TLR SIGNALING INHIBITORY PEPTIDE AND COMPOSITION INCLUDING SAME FOR PREVENTION OR TREATMENT OF INFLAMMATORY DISEASES” (Korea Institute of Science and Technology, priority 2022, dated 2025).

How the values were obtained:
human MAL (human) [1] = target: human MAL (human) (UniProt P58753); experiment: P8 phage display panning on plate-immobilised MAL, after round 4, NGS
human MAL (human) [2] = target: human MAL (human) (UniProt P58753); experiment: P3 phage display panning on plate-immobilised MAL, after round 4, NGS
human MyD88 (human) [3] = target: human MyD88 (human) (UniProt Q99836); experiment: P3 phage display panning on plate-immobilised MyD88, after round 4, NGS
human MyD88 (human) [4] = target: human MyD88 (human) (UniProt Q99836); experiment: P8 phage display panning on plate-immobilised MyD88, after round 4, NGS

UniProt P58753, sequence (P58753 79-221 limits assumed): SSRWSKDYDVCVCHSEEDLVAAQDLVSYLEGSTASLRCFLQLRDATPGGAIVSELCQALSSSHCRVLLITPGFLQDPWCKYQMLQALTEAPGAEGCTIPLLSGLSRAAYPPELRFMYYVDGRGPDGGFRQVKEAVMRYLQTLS
UniProt Q99836, sequence (Q99836 155-296 limits assumed): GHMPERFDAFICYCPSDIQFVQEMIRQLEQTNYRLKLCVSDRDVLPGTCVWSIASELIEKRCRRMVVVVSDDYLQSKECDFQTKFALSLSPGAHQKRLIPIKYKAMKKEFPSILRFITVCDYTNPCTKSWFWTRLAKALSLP

Binder: YLKWGYPWFWDRLRFA
- NGS count (human MAL (human) [1]): 517 count
- Population (human MAL (human) [1]): 0.19%
- NGS count (human MAL (human) [2]): 1680 count
- Population (human MAL (human) [2]): 0.63%
- NGS count (human MyD88 (human) [3]): 7320 count
- Population (human MyD88 (human) [3]): 2.13%

Binder: QLIQQWIELHLHQLHL
- NGS count (human MAL (human) [1]): 9390 count
- Population (human MAL (human) [1]): 2.9%
- NGS count (human MyD88 (human) [4]): 1600 count
- Population (human MyD88 (human) [4]): 0.62%

Binder: NQWRNALTAAANLSGW
- NGS count (human MAL (human) [1]): 848 count
- Population (human MAL (human) [1]): 0.26%
- NGS count (human MAL (human) [2]): 25800 count
- Population (human MAL (human) [2]): 9.71%
- NGS count (human MyD88 (human) [3]): 28700 count
- Population (human MyD88 (human) [3]): 8.35%

Binder: DTKLKKGESIAPELLR
- NGS count (human MAL (human) [1]): 5620 count
- Population (human MAL (human) [1]): 1.74%
- NGS count (human MyD88 (human) [3]): 2460 count
- Population (human MyD88 (human) [3]): 0.72%

Binder: AFFWAQLKSVLGNPTM
- NGS count (human MAL (human) [1]): 28800 count
- Population (human MAL (human) [1]): 8.9%

Binder: AWALHQLQQIINWHET
- NGS count (human MAL (human) [1]): 232 count
- Population (human MAL (human) [1]): 0.07%

Binder: WALQELVKILQAKIFL
- NGS count (human MAL (human) [1]): 227 count
- Population (human MAL (human) [1]): 0.07%

Binder: KFIWDIINAISSQIRV
- NGS count (human MAL (human) [1]): 146 count
- Population (human MAL (human) [1]): 0.05%

Binder: RNFVAYLFQALANKGI
- NGS count (human MAL (human) [1]): 28000 count
- Population (human MAL (human) [1]): 8.63%
